Source: patent US20090176205, “Mutant proteins in the dna-binding domain of a telomeric protein, trf2, and telomeric dna mutants, and use of the complex structure of the trf2 dna-binding domain and telomeric dna” (published 2009)

T1: hTRF2-DBD R496K (Homo sapiens, UniProt Q15554 SEQ:1-63)
T1 chain: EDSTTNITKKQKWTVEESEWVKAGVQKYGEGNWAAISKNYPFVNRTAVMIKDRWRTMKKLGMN

T2: hTRF2-DBD A471S (Homo sapiens, UniProt Q15554 SEQ:1-63)
T2 chain: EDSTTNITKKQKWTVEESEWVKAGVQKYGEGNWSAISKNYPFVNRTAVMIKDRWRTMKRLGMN

T3: hTRF2-DBD A484S (Homo sapiens, UniProt Q15554 SEQ:1-63)
T3 chain: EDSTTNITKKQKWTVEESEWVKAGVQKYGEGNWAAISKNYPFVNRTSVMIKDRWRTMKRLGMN

T4: hTRF2-DBD K447R (Homo sapiens, UniProt Q15554 SEQ:1-63)
T4 chain: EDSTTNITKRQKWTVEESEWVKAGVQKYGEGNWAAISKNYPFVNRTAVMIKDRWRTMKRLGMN

T5: hTRF2-DBD dm (A471S/A484S) (Homo sapiens, UniProt Q15554 SEQ:1-63)
T5 chain: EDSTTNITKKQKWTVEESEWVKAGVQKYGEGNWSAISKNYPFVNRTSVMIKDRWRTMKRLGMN

T6: hTRF2-DBD qm (K447R/A471S/A484S/R496K) (Homo sapiens, UniProt Q15554 SEQ:1-63)
T6 chain: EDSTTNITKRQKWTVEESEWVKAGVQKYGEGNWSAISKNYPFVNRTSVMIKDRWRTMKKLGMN


How the values were obtained:
[1] = target: T7, hTRF1 (DNA-binding domain) (Homo sapiens, UniProt P54274 P54274:371-439); assay: SPR; pH 6.8, 180 mM KCl, 293 K; conditions: label: biotin (13mer on SA chip)
T7 sequence (P54274 371-439, one chain of several): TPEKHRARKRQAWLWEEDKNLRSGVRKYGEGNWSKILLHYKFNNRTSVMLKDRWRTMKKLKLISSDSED
Protocol: (§1) The same experiments were performed on the six mutants of hTRF2 under the same conditions. […] Further, the six mutants were analyzed by SPR for the three DNAs T3G, G7C and T9G, as well as tr13. As a result, Kd values for T3G are about 7 times higher than those values for tr13; and Kd values for T9G are about 100 times higher than those values for tr13. […] Since C7′ is changed to G7′ in G7C, Asp489 which recognizes C7′ has become incapable of recognizing DNA. Thus, interaction with DNA is assumed to be non-specific. Although the affinity to T9G is about 10 times lower than the affinity to G7C, differences in Kd values of individual mutants for DNA show relatively similar tendencies to those observed in tr13 and T3G. It is believed that the binding mode between the major groove and recognition helix is not changed and that only the affinity to T9G is merely very low.
(§2) Affinity analysis was performed using a Biacore 3000 instrument. All experiments were performed at 293 K using a buffer containing 10 mM HEPES-KOH, 3 mM EDTA, 180 mM KCl and 0.003% Triton X-100 (v/v) (pH 6.8). Flow cells of an SA streptavidin sensor chip were coated with the 13mer oligonucleotide biotinylated. The proteins were injected into flow cells over 3-5 min at a flow rate of 10 μL/min until the reaction of protein with DNA had been equilibrated. Bound proteins were removed by a 30-sec wash with 2M KCl.

hTRF2-DBD R496K = target: T1, hTRF2-DBD R496K; assay: SPR; pH 6.8, 180 mM KCl, 293 K; conditions: tags: N-terminal Met added; untagged, E. coli BL21(DE3) pET23b; label: biotin (13mer on SA chip)
Protocol: as §1, §2

hTRF2-DBD A471S = target: T2, hTRF2-DBD A471S; assay: SPR; pH 6.8, 180 mM KCl, 293 K; conditions: tags: N-terminal Met added; untagged, E. coli BL21(DE3) pET23b; label: biotin (13mer on SA chip)
Protocol: as §1, §2

hTRF2-DBD A484S = target: T3, hTRF2-DBD A484S; assay: SPR; pH 6.8, 180 mM KCl, 293 K; conditions: tags: N-terminal Met added; untagged, E. coli BL21(DE3) pET23b; label: biotin (13mer on SA chip)
Protocol: as §1, §2

hTRF2-DBD K447R = target: T4, hTRF2-DBD K447R; assay: SPR; pH 6.8, 180 mM KCl, 293 K; conditions: tags: N-terminal Met added; untagged, E. coli BL21(DE3) pET23b; label: biotin (13mer on SA chip)
Protocol: as §1, §2

hTRF2-DBD wild type [2] = target: T8, hTRF2-DBD wild type (Homo sapiens, UniProt Q15554 SEQ:1-63); assay: SPR; pH 6.8, 180 mM KCl, 293 K; conditions: tags: N-terminal Met added; untagged, E. coli BL21(DE3) pET23b; label: biotin (13mer on SA chip)
Protocol: as §1, §2

[3] = target: T5, hTRF2-DBD dm (A471S/A484S); assay: SPR; pH 6.8, 180 mM KCl, 293 K; conditions: tags: N-terminal Met added; untagged, E. coli BL21(DE3) pET23b; label: biotin (13mer on SA chip)
Protocol: as §1, §2

[4] = target: T7, hTRF1 (DNA-binding domain); assay: SPR; 10 mM HEPES-KOH pH 6.8, 3 mM EDTA, 180 mM KCl, 0.003% Triton X-100, 293 K; conditions: label: biotin (13mer on SA chip)
Protocol: The same experiments were performed on hTRF1 under the same conditions.
as §2, with “KCl. An equilibrium dissociate constant (Kd) was calculated from a Scatchard analysis of the RU values in the equilibrium region of the sensorgram at each analyte concentration. The affinity data were analyzed using BIAevaluation ver. 3.2 software.” for “KCl.”

[5] = target: T6, hTRF2-DBD qm (K447R/A471S/A484S/R496K); assay: SPR; pH 6.8, 180 mM KCl, 293 K; conditions: tags: N-terminal Met added; untagged, E. coli BL21(DE3) pET23b; label: biotin (13mer on SA chip)
Protocol: as §1, §2

hTRF2-DBD wild type [6] = target: T8, hTRF2-DBD wild type; assay: SPR; pH 6.8, 180 mM KCl, 293 K; 1:1 complex also shown by NMR titration and structure; conditions: tags: N-terminal Met added; untagged, E. coli BL21(DE3) pET23b; label: biotin (13mer on SA chip)
Protocol: as §1, §2

Row | Binder | Kd [1] [µM] | Kd (hTRF2-DBD R496K) [µM] | Kd (hTRF2-DBD A471S) [µM] | Kd (hTRF2-DBD A484S) [µM] | Kd (hTRF2-DBD K447R) [µM] | Kd (hTRF2-DBD wild type [2]) [µM] | Kd [3] [µM] | Kd [4] [µM] | Kd [5] [µM] | Kd (hTRF2-DBD wild type [6]) [µM]
1 | T3G (dsDNA) DNA 1: GTGAGGGTTAGGG DNA 2: CCCTAACCCTCAC | 0.795 | 4.92 | 3.07 | 4.03 | 2.19 | 5.94 | 2.58 | – | – | –
2 | G7C (dsDNA) DNA 1: GTTAGGCTTAGGG DNA 2: CCCTAAGCCTAAC | 12.2 | 87 | 32.3 | 50.7 | 24.5 | – | 33.8 | – | – | –
3 | tr13 (dsDNA) DNA 1: GTTAGGGTTAGGG DNA 2: CCCTAACCCTAAC | – | 0.764 | 0.482 | 0.55 | 0.297 | – | 0.385 | 0.186 | 0.196 | 0.748
4 | T9G (dsDNA) DNA 1: GTTAGGGTGAGGG DNA 2: CCCTCACCCTAAC | 3.14 | 114 | 44.2 | 69.1 | 37 | 110 | 47.9 | – | 26.5 | –
